Experimental data reported in US20240150805A1, “Glycosylated Opioids” (River Stone Biotech ApS, priority 2021, published 2024).

Experiments:
[1] = In vitro glucosylation of oripavine and nororipavine by purified UGTs; assay type: biochemical; details: purified UGT, 500 μM substrate, overnight at 30° C., HPLC
Method: Glucosylation samples of a 20 μL total reaction volume for each UGT to be tested were prepared in 96-well microtiter plates as follows:
The microtiter plate was sealed with an adhesive seal, spun shortly and the glucosylation samples were incubated overnight at 30° C. After incubation, glucosylation reaction was terminated by adding 3 volumes (60 μL) of ice-cold 100% methanol the reaction volume and mixing well, followed by centrifugation of the plate at 3000 rpm for 5 min at 4° C. and analysis by HPLC.
The 72UGTs of Table 5 were tested in vitro to using the test setup of example 3 identify those having having specificity toward nororipavine.

[2] = Effect of N-terminal tags on UGT activity in yeast bioconversion of oripavine; assay type: cell-based, Saccharomyces cerevisiae; details: UGT with solubility tag
[3] = Test of additional UGT (SEQ ID NO: 170) in yeast fed with oripavine; assay type: cell-based, Saccharomyces cerevisiae; details: Delft pH 5.5 media, 2 mM oripavine, 3 days, 30 degrees Celsius
Method: An additional UGT (SEQ ID NO: 170) with 62% identity at the protein level to SEQ ID NO: 96 was also tested in a similar manner as above. Briefly, cells were grown overnight in SC-HLU and used to inoculate Delft pH 5.5 media containing 2 mM oripavine. After growth with shaking at 30 degrees Celsius for 3 days, total extracts were obtained by mixing the cultures with an equal volume of 0.2% formic acid and heating at 80 degrees Celsius for 10 minutes. After centrifugation, the supernatant was diluted in 0.1% formic acid for quantification by HPLC as described in the Materials and Methods. UGT SEQ ID NO: 170 was active for glucosylation on both oripavine and nororipavine however it produced 41% of the noropavine-glu relative to SEQ ID NO: 96 and 35% of oripavine-glu relative to SEQ ID NO: 96.

| Molecule | preference for nororipavine glucosylation compared to oripavine glucosylation [1] | amounts of glucosylated nororipavine compared to the untagged UGT alone [2] | also measured |
| --- | --- | --- | --- |
| PWA70520: subfamily 71 UGT (protein, listed as Artemisia annua) MTTLELVFIPSPGAGHLPPTVELAKLLLDHDQRLSVTIIIMNLPFEAEQVTETPISTPRLNFIYVANEDSSKDLISPHTFMSAFLEHQKPKLKNIIRDITESDSVRLVGFIVDMFCIAMIDVANEFGVPTYVYFTSSASALGLMFHLQAKCDDEEYDVTDLKDSDLMLSIPSYVKPIPAKLLPSVLFDKQGGSKMFIDLAKKFRESEGIIINSFQELESHGLEFLIKGDPNIPPVFPVGPILNLKNTKNDGKTTDIMAWLDNQPKSSVVFLCFGSMGSFGEKQVKEIAVALERSEHRFLWSLRRPPSKEVMRLPEEYENFKEVLPEGFLECTSNLGKVIGWAPQTSVLSHPSLGGFVSHCGWNSTLESIWFGVPVAAWPLYAEQQINAFQLVMELGIAAEIKIDYKSNIGPGGGSNEMLVKADEIESGIRRLMNDDDMRRNVKEMKHMSRLTVTEGGSSYASIKRFIELVITNT | preference for glucosylation of nororipavine |  |  |
| SEQ ID NO: 212: UGT fused N-terminally to a solubility tag (protein) METHINLKVSDGSSEIFFKIKKTTPLRRLMEAFAKRQGKEMDSLRFLYDGIRIQADQTPEDLDMEDNDIIEAHREQIGGGGGGSEQKPHIALLPSPGMGHLIPLVEFAKQFVLHHDFHITCIIPVLGSPSKAMKAVLQALPTTIDHVFLPPVILEEEEIKGLKFEVQTILTLTRSLPPLREVLKTTRFSAFVVDPFGIDALDIAKELNISPYIFFPSNAFALSLIFHLPKLDETVSCEYRDLPEPLKLPGCIPIHGRDLIEPVQDRTSELYKMFLRNAKRFRLAEGIIVNTFMELEGSAIKALLDEEAKNLPLYPIGPIQSGSSNLQVDKSVSDCLRWLDNQPHGSVLFVCFGSGGTLSYDQTNELALGLELSGQKFLWVVRTPNNESADAAYLSDQILDNNPLDFLPKGFVERTEGQGLAVPSWAPQAQVLSHGSTGGFLTHCGWNSTLESIMQGIPLIAWPLYAEQKMNAPLLAEDLKVALRPKTNKSGLIDQEEIAKVVKGLMIGEEGKKVYNRMKDIKMAAEKALSADGSSTKALSELASQWKNHPGF |  | higher |  |
| SEQ ID NO: 204: UGT fused N-terminally to a solubility tag (protein) MKAQYEDGKQYTTLEKPVAGAPQVLEFFSFFCPHCYQFEEVLHISDNVKKKLPEGVKMTKYHVNFMGGDLGKDLTQAWAVAMALGVEDKVTVPLFEGVQKTQTIRSASDIRDVFINAGIKGEEYDAAWNSFVVKSLVAQQEKAAADVQLRGVPAMFVNGKYQLNPQGMDTSNMDVFVQQYADTVKYLSEKKGGGGSEQKPHIALLPSPGMGHLIPLVEFAKQFVLHHDFHITCIIPVLGSPSKAMKAVLQALPTTIDHVFLPPVILEEEEIKGLKFEVQTILTLTRSLPPLREVLKTTRFSAFVVDPFGIDALDIAKELNISPYIFFPSNAFALSLIFHLPKLDETVSCEYRDLPEPLKLPGCIPIHGRDLIEPVQDRTSELYKMFLRNAKRFRLAEGIIVNTFMELEGSAIKALLDEEAKNLPLYPIGPIQSGSSNLQVDKSVSDCLRWLDNQPHGSVLFVCFGSGGTLSYDQTNELALGLELSGQKFLWVVRTPNNESADAAYLSDQILDNNPLDFLPKGFVERTEGQGLAVPSWAPQAQVLSHGSTGGFLTHCGWNSTLESIMQGIPLIAWPLYAEQKMNAPLLAEDLKVALRPKTNKSGLIDQEEIAKVVKGLMIGEEGKKVYNRMKDIKMAAEKALSADGSSTKALSELASQWKNHPGF |  | higher |  |
| SEQ ID NO: 214: UGT fused N-terminally to a solubility tag (protein) METHINLKVSDGSSEIFFKIKKTTPLRRLMEAFAKRQGKEMDSLRFLYDGIRIQADQTPEDLDMEDNDIIEAHREQIGGGGGGSGGGGSGGGGSEQKPHIALLPSPGMGHLIPLVEFAKQFVLHHDFHITCIIPVLGSPSKAMKAVLQALPTTIDHVFLPPVILEEEEIKGLKFEVQTILTLTRSLPPLREVLKTTRFSAFVVDPFGIDALDIAKELNISPYIFFPSNAFALSLIFHLPKLDETVSCEYRDLPEPLKLPGCIPIHGRDLIEPVQDRTSELYKMFLRNAKRFRLAEGIIVNTFMELEGSAIKALLDEEAKNLPLYPIGPIQSGSSNLQVDKSVSDCLRWLDNQPHGSVLFVCFGSGGTLSYDQTNELALGLELSGQKFLWVVRTPNNESADAAYLSDQILDNNPLDFLPKGFVERTEGQGLAVPSWAPQAQVLSHGSTGGFLTHCGWNSTLESIMQGIPLIAWPLYAEQKMNAPLLAEDLKVALRPKTNKSGLIDQEEIAKVVKGLMIGEEGKKVYNRMKDIKMAAEKALSADGSSTKALSELASQWKNHPGF |  | higher |  |
| SEQ ID NO: 170: additional UGT with 62% identity at the protein level to SEQ ID NO: 96 (protein) MEQTPHIAIMPTQGMGHLIPLVEFAKRLVLTHNFSATFLIPTDPGRLPAAQKSFLDSLPAGINYVLLPPVNFDDLPDDVGSETRISLAVVRSLPSLRDALKSLVSGFRVVALVVDLFGTDAFDVAAEFNVSPYIFYPSTAMALSLFLHLPKLDESVSCEYRDLPEPVQIPGCIPVHGKDLLDPVQDRKNGAYKWLLHQVKRYRLAEGIMVNSFKELEGGAIKALQEEEPGKPPVYPIGPLVQMDGADEKSECLRWLDDQPRGSVLFVSFGSGGTLSYDQLNELALGLEMSEQRFLWVVRSPNNKSANATYFSVNSQNDPFAFLPKGFLERTKGYGLVVPSWAPQVRVLSHGSTGGFLTHCGWNSTLESVVNGVPLIAWPFYAEQKMNAVMLTEDLKVALRLRIGENGIIGRAEIAKVVKGLMEGEEGKQIRSRMIDLKDAAARALGEDGDSTKSLAELAQKWKNKIIS |  |  | noropavine-glu produced relative to SEQ ID NO: 96 [3]: 41%; oripavine-glu produced relative to SEQ ID NO: 96 [3]: 35% |
| XP_023914549: subfamily 72 UGT, sequence homolog of Qs72S_1 (protein, Quercus suber) MEQKPHIALLPSPGMGHLIPLVEFAKQFVLHHDFRITCIVPVLGSPSKAMKAVLQALPTTIDHVFLPPVKLEEEEIRGLKFEVQTILTLTRSLPPLREVLKSTRFSAFVVDPFGIDALDIAKELNISPYIFFPTNAFALSLIFHLPKLDKTVSCEYRDLPEPLKLPGCIPIHGRDLSEPVQDRTSELYKMFLRNAKRFRLAEGIIVNTFMELERSAIKALLDEEAKNLPLYPIGPIQSGSSNQVDKSESDCLRWLENQPHGSVLFVCFGSGGTLSYDQTNELALGLELSGQKFLWVVRTPNNESADAAYLSDQTLDNNPLAFLPKGFVERTEGQGLAVPSWAPQAQVLSHGSTGGFLTHCGWNSILESVMQGIPLIAWPLYAEQKMNAVLLAEDLKVALRPKTNKNGLIDREEIAKVVKGLMVGEEGKKVRNRMKDIKIAAVKALSADGSSTKALSELASQWKNHPGF | particularly strong preference for Nororipavine glucosylation |  |  |
